Test results reported in patent publication US20240100133A1, “ENZYMATICALLY INACTIVE GRANZYME A AND USES THEREFORE” (Saint Louis University, priority 2022, published 2024).

Assays:
[1] = system: Connaught BCG within primary CD14+ human monocytes; format: cell-based
[2] = system: Mtb H37Rv within primary CD14+ human monocytes; format: cell-based, Mycobacterium tuberculosis
[3] = system: mycobacteria within iMac CD14KO cells; assay: MGIA in iMac CD14KO cells; format: cell-based, mouse
[4] = system: Rab11-FIP1; assay: Quantitative shotgun proteomics of treated and infected monocytes; format: cell-based, human; settings: 200 nM GzmA, infected cells (MOI=3), overnight
Description: Quantitative shotgun proteomics. 1.5e5 human monocytes were either treated or not with 200 nM GzmA, and infected or not with mycobacteria (MOI=3) overnight. After incubation, cells were then washed thrice with PBS, and the pellet lysed using lysis buffer from EasyPep Mini MS Sample Prep Kit (Cat #A40006, Thermo-Fisher, Waltham, MA) supplemented with 1:100 HALT phosphatase inhibitor (Cat #78420, Thermo-Fisher, Waltham, MA). Lysis, reduction/alkylation, protein digestion, and peptide clean-up were performed according to EasyPep recommendations. […] After peptide cleanup, samples were dried using a vacuum centrifuge, and then resuspended in 0.1% formic acid in water for LC-MS analysis. The samples were analyzed on a Q-Exactive orbitrap MS/MS equipped with a nanospray emitter (Thermo Fisher Scientific, Waltham, MA). Nanospray parameters in positive ion mode were as follows: spray voltage, 2.0 KV; capillary temperature, 320° C.; S-lens RF level, 55. […] The MS/MS spectra were analyzed using Sequest HT and MSPepSearch, both integrated in Proteome Discoverer 2.4.1.15 (Thermo Scientific, MA). […] Finally, the results were subjected to statistical analysis using percolator node where the False discovery rate (FDR) was calculated using a decoy database search and only high confidence peptide identifications with FDR 0.01 were included. […]

[5] = thawed aliquots tested up to a week after thawing
[6] = biological target: T1, CD14 (Homo sapiens, UniProt P08571); assay: Immunoprecipitation with anti-GzmA, probed for CD14; settings: human monocyte lysates, infected and uninfected cells
T1 sequence (P08571 20-345): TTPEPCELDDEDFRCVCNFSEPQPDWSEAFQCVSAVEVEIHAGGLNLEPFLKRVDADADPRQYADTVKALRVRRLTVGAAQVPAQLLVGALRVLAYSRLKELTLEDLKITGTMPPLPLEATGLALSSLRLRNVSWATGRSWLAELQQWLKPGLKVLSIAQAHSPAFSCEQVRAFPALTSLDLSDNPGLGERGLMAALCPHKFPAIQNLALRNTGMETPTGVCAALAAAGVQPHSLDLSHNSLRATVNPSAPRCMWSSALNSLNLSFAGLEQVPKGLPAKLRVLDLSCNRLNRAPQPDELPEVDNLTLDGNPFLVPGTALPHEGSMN

B1: GzmA-WT: recombinant wild-type human Granzyme A, homodimeric serine protease, purified from HEK293T supernatants (protein)
chain: IIGGNEVTPHSRPYMVLLSLDRKTICAGALIAKDWVLTAAHCNLNKRSQVILGAHSITREEPTKQIMLVKKEFPYPCYDPATREGDLKLLQLMEKAKINKYVTILHLPKKGDDVKPGTMCQVAGWGRTHNSASWSDTLREVNITIIDRKVCNDRNHYNFNPVIGMNMVCAGSLRGGRDSCNGDSGSPLLCEGVFRGVTSFGLENKCGDPRGPGVYILLSKKHLNWIIMTIKGAV
modifications: left off: small tags and cut ends
notes: recombinant wild-type human Granzyme A, homodimeric serine protease, purified from HEK293T supernatants
GzmA inhibitory activity after CD14 neutralization (MGIA) [1]: lost their inhibitory activity | GzmA inhibitory activity after TLR2 neutralization (MGIA) [1]: does not reverse | GzmA inhibitory activity after TLR4 neutralization (MGIA) [1]: reversed GzmA-mediated mycobacterial growth inhibition | intracellular replication of pre-opsonized mycobacteria (excess protein removed) [1]: reduced intracellular replication capacity | mycobacterial growth inhibition, GzmA added prior to or during infection [1]: maximal inhibitory effects | mycobacterial growth inhibition, GzmA added to already infected cells [1]: did not mediate inhibition | inhibition of intracellular mycobacterial replication (MGIA) ([1]; 72 h): inhibits the intracellular replication of mycobacteria | inhibition of intracellular Mtb (MGIA) ([2]; 200 nM GzmA, Mtb MOI 1, human monocytes): inhibited Mtb | GzmA inhibitory activity after CD14 neutralization, Mtb ([2]; Mtb-infected monocytes, anti-CD14): reversed GzmA-mediated mycobacterial growth inhibition | GzmA inhibitory activity after TLR4 neutralization, Mtb ([2]; Mtb-infected monocytes, anti-TLR4): reversed GzmA-mediated mycobacterial growth inhibition | inhibition of intracellular mycobacterial growth in CD14-deficient iMac cells [3]: incapable of inhibiting intracellular mycobacterial growth | Rab11-FIP1 protein level [4]: upregulated | stability at 4° C. (retention of substrate activity) [5]: continued to retain its activity | binding to CD14 (immunoprecipitation) [6]: bound to CD14
